In this assay the target is Biotinylated MR1-β2m-5-OP-RU (UniProt Q95460). As to the kind of experiment: SPR. (In general: In SPR one partner is held on a chip, and binding of the other changes the refractive index at the surface.)
UniProt Q95460, sequence (Q95460 23-302, chain 1 of 2): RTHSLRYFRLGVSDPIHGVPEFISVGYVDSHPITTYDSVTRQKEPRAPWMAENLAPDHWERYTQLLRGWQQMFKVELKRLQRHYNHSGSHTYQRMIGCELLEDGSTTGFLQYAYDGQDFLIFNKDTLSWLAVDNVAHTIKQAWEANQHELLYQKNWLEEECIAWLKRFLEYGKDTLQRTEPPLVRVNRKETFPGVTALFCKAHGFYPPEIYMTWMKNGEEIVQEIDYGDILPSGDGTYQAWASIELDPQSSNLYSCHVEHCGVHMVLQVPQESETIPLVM
UniProt Q95460, sequence (P61769 21-119, chain 2 of 2, further chain): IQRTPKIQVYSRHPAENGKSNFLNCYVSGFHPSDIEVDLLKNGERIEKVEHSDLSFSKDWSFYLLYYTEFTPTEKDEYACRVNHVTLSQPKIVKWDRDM

Regarding “A-F7 (TRAV1-2/TRBV6-1) adult MAIT TCR, soluble”, the Kd – broadly, the equilibrium constant for the complex coming apart – amounted to 1920 nM. That is a single-digit micromolar value.

The values are drawn from article PMC13458692.
